In patent publication US11739318B1, “Modified biosensors and biocatalysts and methods of use” (priority 2017, dated 2023):

Key:
BKA = BKA sensing with PcaR variants in high BKA producing strain NN7; type: cell-based, P. putida; settings: strain NN7, LB background BKA production
From the text: Rosetta homology modeling, using a known structure of a transcription factor with a homologous sequence (PDB code 2G7U) was used to get a 3D estimate of the PcaR inducer binding domain. Based on the predicted structure, several amino acids in the pocket were identified to be suitable for mutagenesis. […] Positions N140, L161, L166, L172, M179, L234, L238, S240, N257 and S259 were mutated for diversification to achieve N/S/T/I at positions 140 and 257, L/M/V at positions 161, 166, 172, 179, 234 and 238, S/T/A at position 240 and 259. This produced a library of diversity>100,000. The library was transformed in high BKA producing strain where native pcaR gene was deleted (strain NN7) and screened for increase fluorescence response with increasing dose of precursors while in the LB mediated BKA production background.

pNP sensor = test: Raw whole cell fluorescence with pNP sensor and sfGFP-PON1 under positive feedback regulation, flow cytometer; type: cell-based, E. coli; settings: mean of duplicate cultures ± SD
From the text: FIGS. 16A-16D show ‘Catalyze’ and ‘sense’ system for hydrolysis reactions. […] UI: background fluorescence from cells without any pNP source to induce the TF; […]; pNP: TF induced by exogenously supplied pNP as a control/reference. […] Relative activity levels are distinguishable by eye.
The technique described here (referred to in this example as “smart microbial cells” or SMC; e.g., FIGS. 1A and 1B) allows for catalysis and sensing in the same microbial cell. For a practical library application, we simplified and improved the signal to noise ratio of the biosensor. This was achieved by gene fusing the PON1 to the GFP so that the TF is also regulating the catalytic enzyme expression as well (scheme shown in FIG. 1B). This fusion is expected to have three distinct effects. First, it provides positive feedback, such that more the activity, the more PON1 is expressed, and in turn further ‘feeds’ the activity. […] Second, feedback will amplify the already present correlation between activity and GFP expression. Third, for suitably chosen GFP, the fluorescence signal conveniently reports the amount of fused PON1 present, allowing normalization for specific activity.
. Based on the catalytic efficiency and the cytoplasmic concentration of the hydrolase, PXN hydrolysis results in a correlated pNP production inside the microbial cell that ultimately determines activation of the pNP sensor and accumulation of sfGFP in the cells. […] When pNP was used as an inducer, such that the expression of sfGFP-PON1 expression is independent of the catalytic efficiency of PON1, modest differences in cell fluorescence were still captured across the PON1 variants indicating V346A mutation could be detrimental to PON1 expression and stability (FIG. 16C, Table 6).

[1] = UbiC enzyme kinetic parameters (pyruvate release coupled to lactate dehydrogenase, NADH oxidation at 340 nm); type: biochemical; settings: sfGFP fused UbiC variants with C-terminal 6xHis tag, 30° C., pH 7.5; for Km: chorismate
Experimental: Enzyme expression and purification: 5 mL cultures were grown from the glycerol stocks of P. putida CJ182 containing plasmids encoding 6×His-tag UbiC variants. At an OD600 of ˜0.6, the cultures were induced with 1 mM 4HB and further grown for 16 h at 30° C. and 225 rpm shaking. The cultures were centrifuged at 3500×g for 10 min and the cell pellets were lysed with 500 μL BugBuster (Novagen) under slow shaking for 30 min. The cell lysates were centrifuged at 15,000×g for 15 min at 4° C. and the sfGFP-UbiC fusion proteins were purified by Affinity Chromatography using Talon beads (Clontech). For purification, the clarified supernatant for each UbiC variant was mixed with 200 μL Talon beads in an equilibration buffer (50 mM Tris-HCl, 300 mM NaCl, pH 7.5) for 30 min. The mixture was centrifuged at 2000×g, the supernatant was discarded and the pellet consisting of Talon beads with bound protein was washed two times with equilibration buffer containing 50 mM imidazole. Finally, the beads were mixed with elution buffer (50 mM Tris-HCl, 300 mM NaCl, 300 mM Imidazole, pH 7.5) and filtered through a spin column with 0.2 µm filter. The enzyme concentration and purity of the protein in the eluate were determined by absorbance at 280 nm using a Nanodrop (Thermo Scientific) and SDS polyacrylamide gel electrophoresis, respectively.
Determining enzyme kinetic parameters: The production of 4HB from chorismate catalyzed by UbiC is accompanied with release of a pyruvate molecule. […] The reactions were conducted in 96-well plate at 30° C. in the Synergy H4 Hybrid Microplate Reader (Biotek). The kinetic parameters and product inhibition constants were determined by measuring the initial reaction rates with respect to varying substrate and product concentrations and calculated using GraphPad Prism software.

P. putida CJ200 = test: Shake flask muconate production; type: cell-based; settings: plasmid expressed, over CJ200 with no heterologous UbiC expression
Experimental: Shake flask experiments for muconate production: P. putida CJ200 transformed with pPobR_ubiC plasmids or with genomically integrated ubiC-C22 under PobR regulation (NP015) were grown in 125 mL baffled shake flasks containing 25 mL of 1×M9 salts (6.78 g/L Na2HPO4, 3 g/L KH2PO4, 0.5 g/L NaCl, 1 g/L NH4Cl), 30-50 mM glucose, 2 mM MgSO4, 100 μM CaCl2), 18 μM FeSO4, and 50 μg/mL kanamycin. Seed cultures were grown from glycerol stocks in LB media supplemented with 50 μg/mL kanamycin, for 16 hours, pelleted and washed with M9 growth medium and subcultured into flasks to a final OD600 of 0.05. Cultures were incubated at 30° C. and 225 rpm for up to 2 days. Samples were taken at regular intervals to quantify cell density, glucose consumption, and muconate concentration.
Quantification of glucose and muconate concentrations using High Performance Liquid Chromatography (HPLC): To measure muconate concentration, culture samples collected at various time points were centrifuged either at 3,500 rpm for 10 min or 16,000 rpm for 1 min. […] The samples were analyzed for 10 min on a Fast Acid column (Phenomenex Rezex RFQ-Fast Acid H+(8%)) using 0.01 N H2SO4 at a flow rate of 0.8 mL/min as a mobile phase. […] Alternatively, the samples were analyzed for 40 min on a SUPELCOGEL H Column (SUPELCO) with 0.1% H2SO4 at 0.5 mL/min. […]

B1: PcaR-G5: PcaR variant for a low sensitivity BKA sensor, SEQ ID NO: 26 (protein)
chain: MSDETLGNDSGNAEVARPASAAMAPPIVASPAKRIQAFTGDPDFMTSLARGLAVIQAFQERKRHLTIAQISHRTEIPRAAVRRCLHTLIKLGYATTDGRTYSLLPKVLTLGHAYLSSTPLAISAQPYLDRISDQLHEAANMATLEGDDILYIARSATVERLISVDLSVGGRMPAYCTSMGRILLAAMDDTSLREYLERADLKARTSRTLNDPESLFACIQQVRAQGWCVVDQELEQGVRAIAVPVYDASGQVLAALSVSTHVGRVTRSELEQRFLPILLAASRDLCHQLFG
modifications: PcaR-G5
- fluorescence response with BKA precursors, catechol and PCA (BKA): showed dose dependent response

B2: PcaR-F6: PcaR variant for a low sensitivity BKA sensor, SEQ ID NO: 27 (protein)
chain: MSDETLGNDSGNAEVARPASAAMAPPIVASPAKRIQAFTGDPDFMTSLARGLAVIQAFQERKRHLTIAQISHRTEIPRAAVRRCLHTLIKLGYATTDGRTYSLLPKVLTLGHAYLSSTPLAISAQPYLDRISDQLHEAANMATLEGDDILYIARSATVERLISVDLSVGGRLPAYCTSMGRILLAAMDDTSLREYLERADLKARTSRTLNDPESLFACIQQVRAQGWCVVDQELEQGMRTIAVPVYDASGQVLAALSVSTHVGRVTRSELEQRFLPILLAASRDLCHQLFG
modifications: PcaR-F6
- fluorescence response with BKA precursors, catechol and PCA (BKA): showed dose dependent response

B3: PcaR-H6: PcaR variant for a low sensitivity BKA sensor, SEQ ID NO: 28 (protein)
chain: MSDETLGNDSGNAEVARPASAAMAPPIVASPAKRIQAFTGDPDFMTSLARGLAVIQAFQERKRHLTIAQISHRTEIPRAAVRRCLHTLIKLGYATTDGRTYSLLPKVLTLGHAYLSSTPLAISAQPYLDRISDQLHEAANMATLEGDDILYIARSATVERLISVDLSVGGRMPAYCTSMGRILLAAMDDTSLREYLERADLKARTSRTLNDPESLFACIQQVRAQGWCVVDQELEQGVRSIAVPVYDASGQVLAALSVSTHVGRVTRSELEQRFLPILLAASRDLCHQLFG
modifications: PcaR-H6
- fluorescence response with BKA precursors, catechol and PCA (BKA): showed dose dependent response

B4: H115W/V346A: PON1 version that combines the two mutations H115W/V346A (protein, UniProt P27169 2-355, looked up, variant H115W V346A)
Serum …: AKLIALTLLGMGLALFRNHQSSYQTRLNALREVQPVELPNCNLVKGIETGSEDLEILPNGLAFISSGLKYPGIKSFNPNSPGKILLMDLNEEDPTVLELGITGSKFDVSSFNPWGISTFTDEDNAMYLLVVNHPDAKSTVELFKFQEEEKSLLHLKTIRHKLLPNLNDIVAVGPEHFYGTNDHYFLDPYLQSWEMYLGLAWSYVVYYSPSEVRVVAEGFDFANGINISPDGKYVYIAELLAHKIHVYEKHANWTLTPLKSLDFNTLVDNISVDPETGDLWVGCHPNGMKIFFYDSENPPASEVLRIQNILTEEPKVTQVYAENGTVLQGSTVASVYKGKLLIGTAFHKALYCEL
- Raw whole cell fluorescence intensity, PXN (1.6 mM) (pNP sensor; exogenous paraoxon 1.6 mM): 2410 ± 669
- Raw whole cell fluorescence intensity, pNP (200 μM) (pNP sensor; induced with exogenous pNP 200 μM): 11484 ± 2032
- Raw whole cell fluorescence intensity, UI (pNP sensor; uninduced, no pNP source): 248 ± 36

B5: UbiC_C21: E. coli UbiC variant with mutations M34V/I78V (protein, UniProt P26602 2-165, looked up, variant M34V I78V)
Chorismate pyruvate-lyase: SHPALTQLRALRYCKEIPALDPQLLDWLLLEDSVTKRFEQQGKTVSVTMIREGFVEQNEIPEELPLLPKESRYWLREVLLCADGEPWLAGRTVVPVSTLSGPELALQKLGKTPLGRYLFTSSTLTRDFIEIGRDAGLWGRRSRLRLSGKPLLLTELFLPASPLY
- kcat [1]: 0.67 ± 0.06 s⁻¹
- Km [1]: 90.2 ± 7.8 µM
- muconate yield increase (P. putida CJ200): ~130%

B6: UbiC_C11: E. coli UbiC variant with mutations E31Q/I78V/L80V (protein, UniProt P26602 2-165, looked up, variant E31Q I78V L80V)
Chorismate pyruvate-lyase: SHPALTQLRALRYCKEIPALDPQLLDWLLLQDSMTKRFEQQGKTVSVTMIREGFVEQNEIPEELPLLPKESRYWLREVLVCADGEPWLAGRTVVPVSTLSGPELALQKLGKTPLGRYLFTSSTLTRDFIEIGRDAGLWGRRSRLRLSGKPLLLTELFLPASPLY
- kcat [1]: 0.51 ± 0.04 s⁻¹
- Km [1]: 54.7 ± 3.4 µM

B7: UbiC_C22: E. coli UbiC variant with mutations E31Q/M34V (protein, UniProt P26602 2-165, looked up, variant E31Q M34V)
Chorismate pyruvate-lyase: SHPALTQLRALRYCKEIPALDPQLLDWLLLQDSVTKRFEQQGKTVSVTMIREGFVEQNEIPEELPLLPKESRYWLREILLCADGEPWLAGRTVVPVSTLSGPELALQKLGKTPLGRYLFTSSTLTRDFIEIGRDAGLWGRRSRLRLSGKPLLLTELFLPASPLY
- kcat [1]: 1.04 ± 0.09 s⁻¹
- Km [1]: 148 ± 9.4 µM
- muconate yield increase (P. putida CJ200): ~130%
